The test system of one test is [proBACES]FG/V5. The test can be described thus: In vitro PC-mediated processing of proBACES (Western blot). The following applies: equivalent hydrolytic activities of PCs, 1-4 hours incubation. Format: biochemical, mouse.
The test system of test [1] is proBACE processing by PC-like enzyme. In words: proBACE processing in HK293 cells co-expressing [BACEF]FG/V5 and PC-inhibitors (pulse-chase, immunoprecipitation, SDS-PAGE). The class given is cell-based, human. The following applies: co-expression; 20 min [35S]Met pulse, 90 min chase; FG immunoprecipitation. The method, then: FIG. 1: HK293 cells were transiently co-transfected with either ([BACEF]FG/V5+BDNF) [control, CTL] (A,C) or ([BACEF]FG/V5+α1-PDX) (B,D) cDNAs. Two days post-transfections the cells were pulse-labeled in the absence or presence of […] BFA for 15 min with [^35S]Met and then chased for 1 or 2h. Cell lysates were immunoprecipitated with either the FG or V5 mAbs and analysed by SDS-PAGE on 8% tricine gels. The migration position of the 53 kDa molecular mass standard and those of proBACE (pBACE) and BACE are emphasized.
FIG. 2: [A] HK293 cells were transiently co-transfected with cDNAs coding for either ([BACEF]FG/V5+BDNF) [control, CTL], ([BACEF-R45A]FG/V5+BDNF) or ([BACEF-R42A]FG/V5+BDNF) or ([BACEF]FG/V5+either α1-PDX, the prosegments of furin, PC5, PC7, SKI-1, furin-mutated (α2M-F) or wild type (α2M) α2-macroglobulin. The cells were pulse-labeled for 20 min with [^35S]Met and then chased for 90 min. Cell lysates were immunoprecipitated with the FG mAb and analysed by SDS-PAGE on 8% tricine gels. [B] HK293 cells were transiently co-transfected with cDNAs coding for either ([BACEF]FG/V5+BDNF) [CTL], ([BACEF]FG/V5+furin) or ([BACEF]FG/V5+α1-PDX). The cells were then pulse-labeled for 2h with Na2[^35SO4]. Cell lysates were immunoprecipitated with the FG or V5 mAbs and analysed by SDS-PAGE on 8% tricine gels. […]

B1: PC7 (protein)
chain: SIHFNDPKYPQQWHLNNRRSPGRDINVTGVWERNVTGRGVTVVVVDDGVEHTVQDIAPNYSPEGSYDLNSNDPDPMPHPDEENGNHHGTRCAGEIAAVPNNSFCAVGVAYGSRIAGIRVLDGPLTDSMEAVAFNKHYQINDIYSCSWGPDDDGKTVDGPHQLGKAALQHGVMAGRQGFGSIFVVASGNGGQHNDNCNYDGYANSIYTVTIGAVDEEGRMPFYAEECASMLAVTFSGGDKMLRSIVTTDWDLQKGTGCTEGHTGTSAAAPLAAGMIALMLQVRPCLTWRDVQHIIVFTATQYEDHRADWLTNEAGFSHSHQHGFGLLNAWRLVNAAKIWTSVPYLASYVSPMLKENKAVPRSPHSLEVLWNVSRTDLEMSGLKTLEHVAVTVSITHPRRGSLELKLFCPSGMMSLIGAPRSMDSDPNGFNDWTFSTVRCWGERARGVYRLVIRDVGDEPLQVGILQQWQLTLYGSTWSPVDIKDRQSLLESAMSGKYLHDDFTLPCPPGLKIPEEDGYSITPNTLKT
Regarding B1, the “ability to process proBACE into BACE” value in test [proBACES]FG/V5 is “barely, if at all, able”.

B2: α2M: wild type α2-macroglobulin (protein, UniProt P01023 24-1474, looked up)
Alpha-2-macroglobulin: SVSGKPQYMVLVPSLLHTETTEKGCVLLSYLNETVTVSASLESVRGNRSLFTDLEAENDVLHCVAFAVPKSSSNEEVMFLTVQVKGPTQEFKKRTTVMVKNEDSLVFVQTDKSIYKPGQTVKFRVVSMDENFHPLNELIPLVYIQDPKGNRIAQWQSFQLEGGLKQFSFPLSSEPFQGSYKVVVQKKSGGRTEHPFTVEEFVLPKFEVQVTVPKIITILEEEMNVSVCGLYTYGKPVPGHVTVSICRKYSDASDCHGEDSQAFCEKFSGQLNSHGCFYQQVKTKVFQLKRKEYEMKLHTEAQIQEEGTVVELTGRQSSEITRTITKLSFVKVDSHFRQGIPFFGQVRLVDGKGVPIPNKVIFIRGNEANYYSNATTDEHGLVQFSINTTNVMGTSLTVRVNYKDRSPCYGYQWVSEEHEEAHHTAYLVFSPSKSFVHLEPMSHELPCGHTQTVQAHYILNGGTLLGLKKLSFYYLIMAKGGIVRTGTHGLLVKQEDMKGHFSISIPVKSDIAPVARLLIYAVLPTGDVIGDSAKYDVENCLANKVDLSFSPSQSLPASHAHLRVTAAPQSVCALRAVDQSVLLMKPDAELSASSVYNLLPEKDLTGFPGPLNDQDNEDCINRHNVYINGITYTPVSSTNEKDMYSFLEDMGLKAFTNSKIRKPKMCPQLQQYEMHGPEGLRVGFYESDVMGRGHARLVHVEEPHTETVRKYFPETWIWDLVVVNSAGVAEVGVTVPDTITEWKAGAFCLSEDAGLGISSTASLRAFQPFFVELTMPYSVIRGEAFTLKATVLNYLPKCIRVSVQLEASPAFLAVPVEKEQAPHCICANGRQTVSWAVTPKSLGNVNFTVSAEALESQELCGTEVPSVPEHGRKDTVIKPLLVEPEGLEKETTFNSLLCPSGGEVSEELSLKLPPNVVEESARASVSVLGDILGSAMQNTQNLLQMPYGCGEQNMVLFAPNIYVLDYLNETQQLTPEIKSKAIGYLNTGYQRQLNYKHYDGSYSTFGERYGRNQGNTWLTAFVLKTFAQARAYIFIDEAHITQALIWLSQRQKDNGCFRSSGSLLNNAIKGGVEDEVTLSAYITIALLEIPLTVTHPVVRNALFCLESAWKTAQEGDHGSHVYTKALLAYAFALAGNQDKRKEVLKSLNEEAVKKDNSVHWERPQKPKAPVGHFYEPQAPSAEVEMTSYVLLAYLTAQPAPTSEDLTSATNIVKWITKQQNAQGGFSSTQDTVVALHALSKYGAATFTRTGKAAQVTIQSSGTFSSKFQVDNNNRLLLQQVSLPELPGEYSMKVTGEGCVYLQTSLKYNILPEKEEFPFALGVQTLPQTCDEPKAHTSFQISLSVSYTGSRSASNMAIVDVKMVSGFIPLKPTVKMLERSNHVSRTEVSSNHVLIYLDKVSNQTLSLFFTVLQDVPVRDLKPAIVKVYDYYETDEFAIAEYNAPCSKDLGNA
B2: in test [1], the “quantity of the 72 kDa proBACE (pBACEG, Golgi form)” value was “barely detectable”.

The values above are taken from patent publication US20040180417A1, “Secretase/sheddase with asp-ase activity on the beta-site app-cleaving enzyme (bace, asp2, memepsin2)” (priority 2000, published 2004).
